One assay deals with rat PSD-93-GFP (rat) (UniProt Q63622). As to the kind of experiment: co-IP; HEK293T co-transfected; GFP-tagged MAGUK proteins precipitated with anti-GFP antibody; western blot.
For a further assay, the target named is rat SAP102-GFP (rat) (UniProt Q62936). The description is as above.
Assay [1] has as its target human LGI1–FLAG (leucine-rich, glioma inactivated 1 protein) (human) (UniProt O95970). The assay is described as follows: co-IP; HEK293T co-transfected; lysis 24 h after transfection in 20 mM Tris-HCl pH 8.0, 1 mM EDTA, 0.5% Fos-Choline-14; PSD-95-FLAG or LGI1-FLAG precipitated with FLAG-M2 agarose, washed with 100 mM NaCl, 1% Triton X-100, eluted with FLAG peptide; western blot, band intensities; n = 3.

A further assay addresses rat PSD-95-FLAG (rat) (UniProt P31016). The description is as above.

human LGI1–FLAG (leucine-rich, glioma inactivated 1 protein) (human), sequence (O95970 35-557): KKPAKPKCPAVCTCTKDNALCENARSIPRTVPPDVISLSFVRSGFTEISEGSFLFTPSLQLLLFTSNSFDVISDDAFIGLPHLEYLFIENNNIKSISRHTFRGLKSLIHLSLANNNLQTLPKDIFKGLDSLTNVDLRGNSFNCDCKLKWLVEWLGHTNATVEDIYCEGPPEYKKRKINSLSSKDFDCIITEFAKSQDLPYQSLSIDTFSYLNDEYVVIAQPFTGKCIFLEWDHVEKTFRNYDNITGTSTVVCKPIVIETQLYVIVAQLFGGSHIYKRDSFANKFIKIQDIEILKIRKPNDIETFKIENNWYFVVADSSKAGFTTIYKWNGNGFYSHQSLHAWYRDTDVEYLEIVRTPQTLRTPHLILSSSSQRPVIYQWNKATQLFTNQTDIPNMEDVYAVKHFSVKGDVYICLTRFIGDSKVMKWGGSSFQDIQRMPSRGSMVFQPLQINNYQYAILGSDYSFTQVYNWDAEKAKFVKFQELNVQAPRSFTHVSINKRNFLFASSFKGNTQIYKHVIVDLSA
rat PSD-93-GFP (rat), sequence (Q63622 whole entry): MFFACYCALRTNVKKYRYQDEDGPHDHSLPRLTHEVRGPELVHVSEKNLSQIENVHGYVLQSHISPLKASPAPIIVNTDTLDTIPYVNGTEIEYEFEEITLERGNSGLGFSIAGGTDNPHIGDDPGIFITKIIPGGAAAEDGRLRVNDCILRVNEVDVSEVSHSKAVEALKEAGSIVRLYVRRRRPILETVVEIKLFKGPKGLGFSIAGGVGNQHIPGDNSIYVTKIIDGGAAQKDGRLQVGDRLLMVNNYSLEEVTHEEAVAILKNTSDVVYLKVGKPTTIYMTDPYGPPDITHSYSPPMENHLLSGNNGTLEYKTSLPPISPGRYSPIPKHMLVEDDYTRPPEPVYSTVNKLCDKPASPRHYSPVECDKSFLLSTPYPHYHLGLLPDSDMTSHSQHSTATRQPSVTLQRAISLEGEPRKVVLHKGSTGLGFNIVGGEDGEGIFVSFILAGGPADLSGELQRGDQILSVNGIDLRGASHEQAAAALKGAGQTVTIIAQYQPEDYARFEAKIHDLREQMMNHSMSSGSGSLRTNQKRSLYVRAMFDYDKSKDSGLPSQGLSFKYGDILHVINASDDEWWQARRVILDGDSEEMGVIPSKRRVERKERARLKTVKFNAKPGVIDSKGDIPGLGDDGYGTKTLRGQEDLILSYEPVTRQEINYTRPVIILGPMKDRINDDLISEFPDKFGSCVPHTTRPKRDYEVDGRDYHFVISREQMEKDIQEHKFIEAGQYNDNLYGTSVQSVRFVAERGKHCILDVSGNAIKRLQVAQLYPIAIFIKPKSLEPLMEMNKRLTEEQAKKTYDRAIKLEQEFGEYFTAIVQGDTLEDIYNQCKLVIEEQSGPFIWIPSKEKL
rat SAP102-GFP (rat), sequence (Q62936 whole entry): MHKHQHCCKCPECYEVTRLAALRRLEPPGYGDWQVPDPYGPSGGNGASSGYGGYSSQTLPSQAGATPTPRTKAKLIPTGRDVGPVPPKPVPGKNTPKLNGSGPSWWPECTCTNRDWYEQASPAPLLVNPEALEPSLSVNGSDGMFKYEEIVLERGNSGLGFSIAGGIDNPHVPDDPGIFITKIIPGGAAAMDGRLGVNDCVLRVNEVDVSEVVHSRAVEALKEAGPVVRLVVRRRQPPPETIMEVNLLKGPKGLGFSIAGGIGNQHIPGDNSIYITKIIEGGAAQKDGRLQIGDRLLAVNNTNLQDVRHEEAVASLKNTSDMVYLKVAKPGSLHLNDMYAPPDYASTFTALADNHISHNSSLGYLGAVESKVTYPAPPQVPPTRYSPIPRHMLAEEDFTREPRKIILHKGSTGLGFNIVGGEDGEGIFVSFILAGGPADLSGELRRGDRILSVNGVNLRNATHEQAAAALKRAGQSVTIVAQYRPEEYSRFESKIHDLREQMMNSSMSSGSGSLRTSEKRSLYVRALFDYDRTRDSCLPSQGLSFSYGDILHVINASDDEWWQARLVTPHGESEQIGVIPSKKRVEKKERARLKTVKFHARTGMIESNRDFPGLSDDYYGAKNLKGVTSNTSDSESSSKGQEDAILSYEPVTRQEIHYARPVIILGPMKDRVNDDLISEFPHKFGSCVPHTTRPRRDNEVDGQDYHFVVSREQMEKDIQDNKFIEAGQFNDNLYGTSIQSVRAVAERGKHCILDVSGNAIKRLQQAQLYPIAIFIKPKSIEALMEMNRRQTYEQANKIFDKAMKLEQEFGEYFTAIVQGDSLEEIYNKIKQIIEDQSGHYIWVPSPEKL
rat PSD-95-FLAG (rat), sequence (P31016 whole entry): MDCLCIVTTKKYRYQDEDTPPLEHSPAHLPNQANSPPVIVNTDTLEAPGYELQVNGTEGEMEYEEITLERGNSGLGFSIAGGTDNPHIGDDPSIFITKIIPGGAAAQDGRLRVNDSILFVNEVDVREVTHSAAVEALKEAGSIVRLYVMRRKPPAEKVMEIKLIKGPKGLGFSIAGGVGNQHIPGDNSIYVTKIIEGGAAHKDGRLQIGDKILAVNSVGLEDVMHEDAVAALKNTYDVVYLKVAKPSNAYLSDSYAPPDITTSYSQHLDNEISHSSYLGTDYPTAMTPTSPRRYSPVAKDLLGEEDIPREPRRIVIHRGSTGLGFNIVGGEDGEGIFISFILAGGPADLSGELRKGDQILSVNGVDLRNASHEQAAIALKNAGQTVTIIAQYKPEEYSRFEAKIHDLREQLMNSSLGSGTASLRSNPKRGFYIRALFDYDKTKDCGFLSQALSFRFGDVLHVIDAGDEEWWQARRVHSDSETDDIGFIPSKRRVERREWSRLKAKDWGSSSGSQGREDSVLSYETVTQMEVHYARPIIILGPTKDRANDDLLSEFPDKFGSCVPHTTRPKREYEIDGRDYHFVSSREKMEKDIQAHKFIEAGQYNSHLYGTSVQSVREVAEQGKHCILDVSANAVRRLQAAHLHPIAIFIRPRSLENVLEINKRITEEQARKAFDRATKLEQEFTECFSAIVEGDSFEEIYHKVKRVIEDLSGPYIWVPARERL

As to “human ADAM22 S905F variant (from UniProt Q9P0K1-1 26-906) (receptor)”, the co-immunoprecipitated amount, percent of wild type in the assay with rat PSD-93-GFP (rat) was 20%; with rat SAP102-GFP (rat), 20%; in assay [1], 75%; with rat PSD-95-FLAG (rat), 20%.

With “ADAM22 C401Y variant (from UniProt Q9P0K1 26-906) (receptor)”, the co-immunoprecipitated amount, percent of wild type in assay [1] was 40%.

The values above are taken from paper PMC10636567.
